Results published in IntAct's records for PubMed 23027862.

B1: Beta-1,3-galactosyl-O-glycosyl-glycoprotein beta-1,6-N-acetylglucosaminyltransferase (Homo sapiens), Q02742 (parent)
chain: MLRTLLRRRLFSYPTKYYFMVLVLSLITFSVLRIHQKPEFVSVRHLELAGENPSSDINCTKVLQGDVNEIQKVKLEILTVKFKKRPRWTPDDYINMTSDCSSFIKRRKYIVEPLSKEEAEFPIAYSIVVHHKIEMLDRLLRAIYMPQNFYCIHVDTKSEDSYLAAVMGIASCFSNVFVASRLESVVYASWSRVQADLNCMKDLYAMSANWKYLINLCGMDFPIKTNLEIVRKLKLLMGENNLETERMPSHKEERWKKRYEVVNGKLTNTGTVKMLPPLETPLFSGSAYFVVSREYVGYVLQNEKIQKLMEWAQDTYSPDEYLWATIQRIPEVPGSLPASHKYDLSDMQAVARFVKWQYFEGDVSKGAPYPPCDGVHVRSVCIFGAGDLNWMLRKHHLFANKFDVDVDLFAIQCLDEHLRHKALETLKH

Variants of: B1
Details: with golp3_human GOLPH3, Q9H4A6
golp3_human GOLPH3, Q9H4A6, sequence (Q9H4A6 whole entry): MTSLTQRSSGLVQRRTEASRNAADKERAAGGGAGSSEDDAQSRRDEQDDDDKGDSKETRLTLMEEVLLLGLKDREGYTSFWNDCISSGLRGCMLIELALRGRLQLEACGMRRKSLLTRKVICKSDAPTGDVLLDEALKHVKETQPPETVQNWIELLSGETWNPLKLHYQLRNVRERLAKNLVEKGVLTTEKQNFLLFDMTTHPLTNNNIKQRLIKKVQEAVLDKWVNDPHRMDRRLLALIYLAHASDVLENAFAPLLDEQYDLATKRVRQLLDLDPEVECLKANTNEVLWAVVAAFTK

| Variant | effect of a mutation on the interaction |
| --- | --- |
| MLRTAARRRLFSYPTKYYFMVLVLSLITFSVLRIHQKPEFVSVRHLELAGENPSSDINCTKVLQGDVNEIQKVKLEILTVKFKKRPRWTPDDYINMTSDCSSFIKRRKYIVEPLSKEEAEFPIAYSIVVHHKIEMLDRLLRAIYMPQNFYCIHVDTKSEDSYLAAVMGIASCFSNVFVASRLESVVYASWSRVQADLNCMKDLYAMSANWKYLINLCGMDFPIKTNLEIVRKLKLLMGENNLETERMPSHKEERWKKRYEVVNGKLTNTGTVKMLPPLETPLFSGSAYFVVSREYVGYVLQNEKIQKLMEWAQDTYSPDEYLWATIQRIPEVPGSLPASHKYDLSDMQAVARFVKWQYFEGDVSKGAPYPPCDGVHVRSVCIFGAGDLNWMLRKHHLFANKFDVDVDLFAIQCLDEHLRHKALETLKH [L5A;L6A] | disrupting interaction strength |

Variants of: B1
Details: with golp3_human GOLPH3, Q9H4A6
Remark: another data set of the same source

| Variant | effect of a mutation on the interaction |
| --- | --- |
| MLRTLLAAALFSYPTKYYFMVLVLSLITFSVLRIHQKPEFVSVRHLELAGENPSSDINCTKVLQGDVNEIQKVKLEILTVKFKKRPRWTPDDYINMTSDCSSFIKRRKYIVEPLSKEEAEFPIAYSIVVHHKIEMLDRLLRAIYMPQNFYCIHVDTKSEDSYLAAVMGIASCFSNVFVASRLESVVYASWSRVQADLNCMKDLYAMSANWKYLINLCGMDFPIKTNLEIVRKLKLLMGENNLETERMPSHKEERWKKRYEVVNGKLTNTGTVKMLPPLETPLFSGSAYFVVSREYVGYVLQNEKIQKLMEWAQDTYSPDEYLWATIQRIPEVPGSLPASHKYDLSDMQAVARFVKWQYFEGDVSKGAPYPPCDGVHVRSVCIFGAGDLNWMLRKHHLFANKFDVDVDLFAIQCLDEHLRHKALETLKH [R7A;R8A;R9A] | disrupting interaction strength |
